From patent US12616740B2, “Methods of using a GIP/GLP1 co-agonist for therapy” (ELI LILLY AND COMPANY, priority 2018, dated 2026)

Legend:
Type in all cases: in vivo, human
[1] = NCT03131687: nausea, vomiting and diarrhea, new events per interval; details: dulaglutide 1.5 mg once weekly, N = 54
Procedure: (§1) Clinical Study (NCT03131687) Supporting Maintenance Dose Embodiments A 6-month (26-week) Phase 2 double-blind clinical study is designed to evaluate the safety, efficacy, and PK/PD of 4 dose levels (1 mg, 5 mg, 10 mg and 15 mg respectively) of tirzepatide once weekly by subcutaneous injection compared with dulaglutide 1.5 mg. once weekly (QW) and placebo QW in patients with T2DM who have inadequate glycemic control with diet and exercise with or without a stable dose of metformin. Tirzepatide dose is up-titrated to the maintenance dose using the following weekly dose increments:
(§2) The study also has a 4-week follow up period. In addition to safety and efficacy for treating T2DM, efficacy endpoints include the effect of tirzepatide on HbA1c, FBG, body weight, lipids, and waist circumference compared with placebo and with dulaglutide 1.5 mg. The study also evaluates the effect of tirzepatide on GI tolerability, hypoglycemia, hypersensitivity reactions, and pancreatic safety, as well as the development of treatment-emergent anti-drug antibodies. Model-based dose response analyses are performed to predict potential for significant HbA1c lowering and weight loss in longer studies. Statistical Analyses: Efficacy: The primary efficacy outcome of HbA1c change from baseline to the 26-week endpoint is analyzed using a Bayesian dose-response model. Analyses are performed on the intention to treat population (mITT) analysis set. Supportive analysis of the primary efficacy outcome for the mITT dataset are the model for post-baseline measures (MMRM) with body mass index (BMI) (<30 kg/m^2, ≥30 kg/m^2), metformin use, treatment, visit, and treatment-by-visit interaction as fixed effects, baseline HbA1c as a covariate, and patient as a random effect. The mean weight change from baseline at 12 and 26 weeks, along with the mean change from baseline of HbA1c at 12 weeks, is analyzed using similar dose-response models as the primary analyses. The percentages of patients with ≥5% or ≥10% body weight loss, reaching the HbA1c target of ≤6.5% or ≤7.0% at 26 weeks, or requiring rescue therapy are analyzed using logistic regression with fixed effects of treatment and strata, and baseline as a covariate. The changes from baseline in FBG (fasting blood glucose), SMBG (self-monitored blood glucose) levels, waist circumference, and mean percentage change in lipids from baseline to 12 and 26 weeks are analyzed using a similar MMRM to the one used for the primary analyses. Table Abbreviations: Dula 1.5 mg=dulaglutide 1.5 mg once weekly; LY means tirzepatide, and LY 1 mg=tirzepatide 1 mg once weekly; LY 5 mg=5 mg once weekly; LY 10 mg=escalation dose group tirzepatide once weekly with highest dose of 10 mg; LY 15 mg=escalation dose group of tirzepatide once weekly with highest dose 15 mg; LOCF=last observation-carried-forward; N=number of patients; pbo=placebo; Week 26=mITT on-treatment data at Week 26 excluding data after study drug discontinuation or rescue drug initiation; mITT=modified intent-to-treat; SD=standard deviation. For Table 4, n=number of patients in the population with baseline and post-baseline value at the specified time point. For Table 6, LY10 mg=escalation dose group tirzepatide, once weekly with highest dose of 10 mg; escalation dose: (5 mg weeks 0 and 1), LY15 mg=escalation dose group tirzepatide, once weekly with highest dose of 15 mg; escalation dose: (5 mg weeks 0 and 1; 10 mg weeks 2 to 5); N=number of patients in specified group, m=number of patients who experienced new event during interval, FolUp=follow up, T/Wk=Time range, (week) and %=means percent patients spending at least some time in treatment group who experienced new event during interval. For Table 7, n is the number of patients with events meeting the criteria; N is number of patients in the population; % is percent of patients in treatment group experiencing the event.

[2] = system: patients with T2DM who have inadequate glycemic control; experiment: NCT03131687: mean fasting glucose at Week 26; parameters: Mean change from baseline, fasting glucose: unit not given here; details: dulaglutide 1.5 mg once weekly, N 46
Procedure: as §1, §2

[3] = NCT03131687: weight loss at Week 26; details: dulaglutide 1.5 mg once weekly
Procedure: as §1, §2

[4] = system: patients with T2DM who have inadequate glycemic control; experiment: Phase 2 clinical study NCT03131687 (26 weeks): patients reaching HbA1c target; details: dulaglutide 1.5 mg once weekly
Procedure: as §1, §2

[5] = NCT03131687: decrease appetite (reported event); details: dulaglutide 1.5 mg once weekly, N = 54
Procedure: as §1, §2

[6] = second line, analysis set not given (not LOCF)

Substance: dulaglutide [reference compound]
- Nausea Vomiting and Diarrhea: % patients who experienced new event during interval ([1]; Fol Up (follow up)): 5.9%
- Nausea Vomiting and Diarrhea: m, number of patients who experienced new event during interval ([1]; Fol Up (follow up)): 3
- Nausea Vomiting and Diarrhea: % patients who experienced new event during interval ([1]; T/Wk 0): 22.2%
- Nausea Vomiting and Diarrhea: m, number of patients who experienced new event during interval ([1]; T/Wk 0): 12
- Nausea Vomiting and Diarrhea: % patients who experienced new event during interval ([1]; T/Wk 1): 3.7%
- Nausea Vomiting and Diarrhea: m, number of patients who experienced new event during interval ([1]; T/Wk 1): 2
- Nausea Vomiting and Diarrhea: % patients who experienced new event during interval ([1]; T/Wk 2): 0.0%
- Nausea Vomiting and Diarrhea: m, number of patients who experienced new event during interval ([1]; T/Wk 2): 0
- Nausea Vomiting and Diarrhea: % patients who experienced new event during interval ([1]; T/Wk 3): 3.8%
- Nausea Vomiting and Diarrhea: m, number of patients who experienced new event during interval ([1]; T/Wk 3): 2
- Nausea Vomiting and Diarrhea: % patients who experienced new event during interval ([1]; T/Wk 4): 1.9%
- Nausea Vomiting and Diarrhea: m, number of patients who experienced new event during interval ([1]; T/Wk 4): 1
- Nausea Vomiting and Diarrhea: % patients who experienced new event during interval ([1]; T/Wk 5): 0.0%
- Nausea Vomiting and Diarrhea: m, number of patients who experienced new event during interval ([1]; T/Wk 5): 0
- Nausea Vomiting and Diarrhea: % patients who experienced new event during interval ([1]; T/Wk 6): 0.0%
- Nausea Vomiting and Diarrhea: m, number of patients who experienced new event during interval ([1]; T/Wk 6): 0
- Nausea Vomiting and Diarrhea: % patients who experienced new event during interval ([1]; T/Wk 7): 1.9%
- Nausea Vomiting and Diarrhea: m, number of patients who experienced new event during interval ([1]; T/Wk 7): 1
- Nausea Vomiting and Diarrhea: % patients who experienced new event during interval ([1]; T/Wk 8): 0.0%
- Nausea Vomiting and Diarrhea: m, number of patients who experienced new event during interval ([1]; T/Wk 8): 0
- Nausea Vomiting and Diarrhea: % patients who experienced new event during interval ([1]; T/Wk 9): 1.9%
- Nausea Vomiting and Diarrhea: m, number of patients who experienced new event during interval ([1]; T/Wk 9): 1
- Nausea Vomiting and Diarrhea: % patients who experienced new event during interval ([1]; T/Wk 10): 0.0%
- Nausea Vomiting and Diarrhea: m, number of patients who experienced new event during interval ([1]; T/Wk 10): 0
- Nausea Vomiting and Diarrhea: % patients who experienced new event during interval ([1]; T/Wk 11): 0.0%
- Nausea Vomiting and Diarrhea: m, number of patients who experienced new event during interval ([1]; T/Wk 11): 0
- Nausea Vomiting and Diarrhea: % patients who experienced new event during interval ([1]; T/Wk 12): 2.0%
- Nausea Vomiting and Diarrhea: m, number of patients who experienced new event during interval ([1]; T/Wk 12): 1
- Nausea Vomiting and Diarrhea: % patients who experienced new event during interval ([1]; T/Wk >12 < 16): 3.9%
- Nausea Vomiting and Diarrhea: m, number of patients who experienced new event during interval ([1]; T/Wk >12 < 16): 2
- Nausea Vomiting and Diarrhea: % patients who experienced new event during interval ([1]; T/Wk >16 ≤ 20): 2.0%
- Nausea Vomiting and Diarrhea: m, number of patients who experienced new event during interval ([1]; T/Wk >16 ≤ 20): 1
- Nausea Vomiting and Diarrhea: % patients who experienced new event during interval ([1]; T/Wk >20): 7.8%
- Nausea Vomiting and Diarrhea: m, number of patients who experienced new event during interval ([1]; T/Wk >20): 4
- Mean change from baseline, fasting glucose [2]: −34.9
- Mean glucose value (fasting) [2]: 140.5 mg/dL
- % of Patients Achieving Weight loss ≥10% ([3]; LOCF): 9.3%
- odds ratio vs. placebo, Weight loss ≥10% ([3]; LOCF): 11.7
- % of Patients Achieving Weight loss ≥10% [3, 6]: 10.6%
- % of Patients Achieving Weight loss ≥15% [3, 6]: 2.1%
- odds ratio vs. placebo, Weight loss ≥10% [3, 6]: 10.4
- % of Patients Reaching HbA1c Target <5.7% ([4]; LOCF Week 26 (N = 54)): 1.9%
- % of Patients Reaching HbA1c Target <6% ([4]; LOCF Week 26 (N = 54)): 11.1%
- odds ratio vs. placebo, Patients Reaching HbA1c Target <5.7% ([4]; LOCF Week 26 (N = 54)): 1.0
- odds ratio vs. placebo, Patients Reaching HbA1c Target <6% ([4]; LOCF Week 26 (N = 54)): 4.5
- % of Patients Reaching HbA1c Target <5.7% ([4]; mITT Week 26 (N = 47)): 2.1%
- % of Patients Reaching HbA1c Target <6% ([4]; mITT Week 26 (N = 47)): 12.8%
- odds ratio vs. placebo, Patients Reaching HbA1c Target <5.7% ([4]; mITT Week 26 (N = 47)): 0.89
- odds ratio vs. placebo, Patients Reaching HbA1c Target <6% ([4]; mITT Week 26 (N = 47)): 4.5
- Decrease Appetite (reported): n, number of patients with events [5]: n = 3;
- Decrease Appetite (reported): percent of patients in treatment group experiencing the event [5]: 5.6%
